Assays:
HLA-A*03:01 = assay: IEDB peptide-MHC binding, purified MHC/direct/fluorescence; filed as Kd, often an IC50 or EC50 that approximates it; ≥ and ≤ were set here for values at or beyond the usual limits of such assays
HLA-A*11:01 [1] = assay: as above
HLA-A*31:01 [2] = assay: IEDB peptide-MHC binding, purified MHC/competitive/fluorescence; filed as Kd, often an IC50 or EC50 that approximates it; ≥ and ≤ were set here for values at or beyond the usual limits of such assays
HLA-A*31:01 [3] = assay: IEDB peptide-MHC binding, purified MHC/competitive/radioactivity; filed as Kd, often an IC50 or EC50 that approximates it; ≥ and ≤ were set here for values at or beyond the usual limits of such assays; conditions: source organism: Dengue virus 2 Jamaica/1409/1983
HLA-B*57:01 [4] = assay: as above
HLA-A*68:01 = assay: as above; conditions: source organism: Dengue virus 2 Jamaica/1409/1983
HLA-B*58:01 [5] = assay: as above
HLA-B*53:01 = assay: as above
HLA-A*24:02 = assay: IEDB peptide-MHC binding, purified MHC/competitive/fluorescence; ≥ and ≤ were set here for values at or beyond the usual limits of such assays; conditions: source organism: Zaire ebolavirus
HLA-A*11:01 [6] = assay: as above; conditions: source organism: Zaire ebolavirus
HLA-A*31:01 [7] = assay: IEDB peptide-MHC binding, purified MHC/direct/fluorescence; filed as Kd, often an IC50 or EC50 that approximates it; ≥ and ≤ were set here for values at or beyond the usual limits of such assays
HLA-A*02:01 = assay: as above
HLA-A*01:01 = assay: as above
HLA-B*48:01 = assay: as above
HLA-B*18:01 = assay: as above
HLA-A*69:01 = assay: as above
HLA-B*08:01 = assay: as above; conditions: source organism: Mammarenavirus lassaense
HLA-B*40:01 = assay: as above
HLA-B*58:01 [8] = assay: as above
HLA-B*27:05 = assay: as above
HLA-B*44:02 = assay: as above
HLA-B*15:17 = assay: as above
HLA-B*57:01 [9] = assay: as above
HLA-B*07:02 = assay: as above; conditions: source organism: Camelpox virus M-96
HLA-A*68:02 = assay: as above; conditions: source organism: Camelpox virus M-96
[10] = source organism: Vibrio vulnificus
[11] = source organism: Dengue virus 2 Jamaica/1409/1983
[12] = source organism: West Nile virus
[13] = source organism: Dengue virus 1 Brazil/97-11/1997
[14] = source organism: Dengue virus 4 Philippines/H241/1956
[15] = source organism: Mammarenavirus lassaense
[16] = source organism: Camelpox virus M-96
[17] = source organism: Yellow fever virus 1899/81
[18] = source organism: dengue virus type 1
[19] = source organism: Dengue virus 1 Singapore/S275/1990
[20] = source organism: Rickettsia prowazekii

## ASILSRMAY
HLA-A*03:01; [10]
  Kd: 0.974 µM
HLA-A*11:01 [1]; [10]
  Kd: 0.0074 µM
HLA-A*31:01 [2]; source organism: Vibrio vulnificus YJ016
  Kd: ≥ 20 µM

## ASSMVNGVVR
HLA-A*31:01 [3]
  Kd: ≥ 44.1 µM
HLA-B*57:01 [4]; [11]
  Kd: 1.4 µM
HLA-A*68:01
  Kd: 0.0477 µM
HLA-B*58:01 [5]; [11]
  Kd: 2.06 µM

## RLCYGGPWK
HLA-A*03:01; [12]
  Kd: 0.517 µM
HLA-A*11:01 [1]; [12]
  Kd: 0.358 µM
HLA-A*31:01 [2]; [12]
  Kd: ≥ 20 µM

## IPQWQPSKGW
HLA-B*53:01; source organism: Dengue virus 3 Martinique/1243/1999
  Kd: 0.0731 µM

## GSSIGKMFEA
HLA-B*57:01 [4]; [13]
  Kd: 0.853 µM
HLA-B*58:01 [5]; [13]
  Kd: 3 µM

## LSSTRVPNYN
HLA-B*57:01 [4]; [14]
  Kd: 5.97 µM
HLA-B*58:01 [5]; [14]
  Kd: 0.202 µM

## NSSVNVSLTA
HLA-B*57:01 [4]; [11]
  Kd: 0.433 µM
HLA-B*58:01 [5]; [11]
  Kd: 0.01 µM

## EAIVNAQPK
HLA-A*24:02
  IC50: 28.4 µM
HLA-A*11:01 [6]
  IC50: 34.9 µM

## FVRSSPANF
HLA-A*31:01 [7]; [15]
  Kd: ≥ 20 µM
HLA-A*02:01; [15]
  Kd: ≥ 20 µM
HLA-A*03:01; [15]
  Kd: ≥ 20 µM
HLA-A*01:01; [15]
  Kd: ≥ 20 µM
HLA-B*48:01; [15]
  Kd: ≥ 20 µM
HLA-B*18:01; [15]
  Kd: ≥ 20 µM
HLA-A*69:01; [15]
  Kd: ≥ 20 µM
HLA-A*11:01 [1]; [15]
  Kd: ≥ 20 µM
HLA-B*08:01
  Kd: 2.1 µM
HLA-B*40:01; [15]
  Kd: ≥ 20 µM
HLA-B*58:01 [8]; [15]
  Kd: ≥ 20 µM
HLA-B*27:05; [15]
  Kd: ≥ 20 µM
HLA-B*44:02; [15]
  Kd: ≥ 20 µM

## YERGNIIIF
HLA-A*31:01 [7]; [16]
  Kd: ≥ 20 µM
HLA-B*15:17; [16]
  Kd: ≥ 20 µM
HLA-A*02:01; [16]
  Kd: ≥ 20 µM
HLA-B*57:01 [9]; [16]
  Kd: ≥ 20 µM
HLA-A*01:01; [16]
  Kd: ≥ 20 µM
HLA-B*48:01; [16]
  Kd: ≥ 20 µM
HLA-B*18:01; [16]
  Kd: 0.0319 µM
HLA-A*69:01; [16]
  Kd: ≥ 20 µM
HLA-A*11:01 [1]; [16]
  Kd: ≥ 20 µM
HLA-B*40:01; [16]
  Kd: 0.154 µM
HLA-B*07:02
  Kd: ≥ 20 µM
HLA-A*68:02
  Kd: ≥ 20 µM
HLA-B*58:01 [8]; [16]
  Kd: ≥ 20 µM
HLA-B*27:05; [16]
  Kd: ≥ 20 µM
HLA-B*44:02; [16]
  Kd: ≥ 20 µM

## EAVEDSRFW
HLA-B*57:01 [4]; [11]
  Kd: 0.0222 µM
HLA-B*53:01; [11]
  Kd: 0.013 µM

## KSAHGSPTF
HLA-B*15:17; [17]
  Kd: 0.0049 µM
HLA-B*57:01 [9]; [17]
  Kd: 1.27 µM

## REDQWCGSL
HLA-B*18:01; [18]
  Kd: 11.6 µM
HLA-B*44:02; [18]
  Kd: ≥ 20 µM

## RRWCFDGPR
HLA-B*48:01; [12]
  Kd: ≥ 20 µM

## AVFVDENQW
HLA-B*57:01 [4]; [13]
  Kd: 0.000913 µM

## LINDQLIMK
HLA-A*03:01; [15]
  Kd: ≥ 20 µM
HLA-A*11:01 [1]; [15]
  Kd: 0.285 µM
HLA-A*31:01 [2]; source organism: Lassa virus GA391
  Kd: ≥ 20 µM

## KTSVGVNMCT
HLA-B*57:01 [4]; [19]
  Kd: 8.16 µM
HLA-B*58:01 [5]; [19]
  Kd: 1.81 µM

## STYGISEDL
HLA-B*15:17; [20]
  Kd: 0.256 µM
HLA-B*57:01 [9]; [20]
  Kd: ≥ 20 µM
HLA-B*58:01 [8]; [20]
  Kd: ≥ 20 µM

Reference: the Immune Epitope Database (IEDB)
